“And” between values parts separate entries of the source, which are not always exact repeats. Equal values may be shown once. Read-outs that look alike come from different tables or passages of the source.
Assays:
Assay in all cases: cell-based or functional assay
[1] = biological target: HA of A/Fort Monmouth/1/47 (H1N1) (influenza A virus)
[2] = biological target: HA of A/New Jersey/8/76 (H1N1) (influenza A virus)
[3] = biological target: HA of A/Kawasaki/9/86 (H1N1) (influenza A virus)
[4] = biological target: HA of ca A/Texas/36/91 (H1N1) (influenza A virus)
[5] = biological target: HA of ca A/Beijing/262/95 (H1N1) (influenza A virus)
[6] = biological target: HA of ca A/New Caledonia/20/99 (H1N1) (influenza A virus)
[7] = biological target: HA of virus H1-BS10
[8] = biological target: HA of ca A/Japan/57 (H2N2) (influenza A virus)
[9] = biological target: HA of ca A/swine/Missouri/06 (H2N3) (influenza A virus)
[10] = biological target: HA of ca A/Vietnam/1203/04 (H5N1) (influenza A virus)
[11] = biological target: HA of ca A/Hong Kong/213/03 (H5N1) (influenza A virus)
[12] = biological target: HA of ca A/mallard/Alberta/89/85 (H6N2) (influenza A virus)
[13] = biological target: HA of ca A/teal/Hong Kong/W312/97 (H6N1) (influenza A virus)
[14] = biological target: T1, HA of ca A/chicken/Hong Kong/G9/97 (H9N2) (influenza A virus)
[15] = biological target: HA of A/Hong Kong/8/68 (H3N2) (influenza A virus)
[16] = biological target: HA of A/Victoria/3/75 (H3N2) (influenza A virus)
[17] = biological target: HA of ca A/Sydney/5/97 (H3N2) (influenza A virus)
[18] = biological target: HA of ca A/Panama/2007/99 (H3N2) (influenza A virus)
[19] = biological target: HA of A/Wisconsin/67/05 (H3N2) (influenza A virus)
[20] = biological target: HA of ca A/Perth/16/09 (H3N2) (influenza A virus)
[21] = biological target: HA of A/Victoria/361/11 (H3N2) (influenza A virus)
[22] = biological target: HA of ca A/Netherlands/219/03 (H7N7) (influenza A virus)
[23] = biological target: T2, HA of ca A/Brit. Columbia/CN-6/04 (H7N3-LP) (influenza A virus)
[24] = biological target: HA of swine-origin A/Minnesota/11/2010 H3N2 virus (influenza A virus)
[25] = biological target: HA of A/Fort Monmouth/1/47 (H1N1) (influenza A virus); remark: listed apart in the source
[26] = biological target: HA of A/New Jersey/8/76 (H1N1) (influenza A virus); remark: listed apart in the source
[27] = biological target: HA of A/Kawasaki/9/86 (H1N1) (influenza A virus); remark: listed apart in the source
[28] = biological target: HA of ca A/Texas/36/91 (H1N1) (influenza A virus); remark: listed apart in the source
[29] = biological target: HA of ca A/Beijing/262/95 (H1N1) (influenza A virus); remark: listed apart in the source
[30] = biological target: HA of ca A/New Caledonia/20/99 (H1N1) (influenza A virus); remark: listed apart in the source
[31] = biological target: HA of ca A/swine/Missouri/06 (H2N3) (influenza A virus); remark: listed apart in the source
[32] = biological target: HA of ca A/Vietnam/1203/04 (H5N1) (influenza A virus); remark: listed apart in the source
[33] = biological target: HA of ca A/Hong Kong/213/03 (H5N1) (influenza A virus); remark: listed apart in the source
[34] = biological target: HA of ca A/teal/Hong Kong/W312/97 (H6N1) (influenza A virus); remark: listed apart in the source
[35] = biological target: T1, HA of ca A/chicken/Hong Kong/G9/97 …; remark: listed apart in the source
[36] = biological target: HA of A/Hong Kong/8/68 (H3N2) (influenza A virus); remark: listed apart in the source
[37] = biological target: HA of A/Victoria/3/75 (H3N2) (influenza A virus); remark: listed apart in the source
[38] = biological target: HA of ca A/Sydney/5/97 (H3N2) (influenza A virus); remark: listed apart in the source
[39] = biological target: HA of ca A/Panama/2007/99 (H3N2) (influenza A virus); remark: listed apart in the source
[40] = biological target: HA of A/Wyoming/03/03 (H3N2) (influenza A virus)
[41] = biological target: HA of A/Wisconsin/67/05 (H3N2) (influenza A virus); remark: listed apart in the source
[42] = biological target: HA of ca A/Perth/16/09 (H3N2) (influenza A virus); remark: listed apart in the source
[43] = biological target: HA of ca A/Netherlands/219/03 (H7N7) (influenza A virus); remark: listed apart in the source
[44] = biological target: T2, HA of ca A/Brit. Columbia/CN-6/04 …; remark: listed apart in the source

B1: Antibody 13 (antibody, V domains shown)
VH: QVQLQQSGPGLVKPSQTLSLTCAISGDSVSSYNAVWNWIRQSPSRGLEWLGRTYYRSGWYNDYAESVKSRITINPDTSKNQFSLQLNSVTPEDTAVYYCARSGHITVFGVNVDAFDMWGQGTMVTVSS
VL: DIQMTQSPSSLSASVGDRVTITCRTSQSLSSYDHWYQQKPGKAPKLLIYAASSRLSGVPSRFSGSGSGTDFTLTISSLQPEDFATYYCQQSRTFGQGTKVEIK
Neutralization IC50, H1-FM47 [1]: 0.5 µg/mL | Neutralization IC50, H1-NJ76 [2]: 0.12 µg/mL | Neutralization IC50, H1-Kaw86 [3]: 0.41 µg/mL | Neutralization IC50, H1-TX91 [4]: 0.09 µg/mL | Neutralization IC50, H1-BJ95 [5]: 1.86 µg/mL | Neutralization IC50, H1-Ncal99 [6]: 0.77 µg/mL | Neutralization IC50, H1-BS10 [7]: 1.23 µg/mL | Neutralization IC50, H2-JP57 [8]: 0.47 µg/mL | Neutralization IC50, H2-MO06 [9]: 0.57 µg/mL | Neutralization IC50, H5-VM04 [10]: 0.56 µg/mL | Neutralization IC50, H5-HK03 [11]: 0.17 µg/mL | Neutralization IC50, H6-AB85 [12]: 0.29 µg/mL | Neutralization IC50, H6-HK97 [13]: 0.55 µg/mL | Neutralization IC50, H9-HK97 [14]: 0.29 µg/mL | Neutralization IC50, H3-HK68 [15]: 0.44 µg/mL | Neutralization IC50, H3-Vic75 [16]: 0.43 µg/mL | Neutralization IC50, H3-Syd97 [17]: 2.18 µg/mL | Neutralization IC50, H3-Pa99 [18]: 2.62 µg/mL | Neutralization IC50, H3-WI05 [19]: 1.19 µg/mL | Neutralization IC50, H3-Perth09 [20]: 0.28 µg/mL | Neutralization IC50, H3-VC11 [21]: 1.03 µg/mL | Neutralization IC50, H7-NLD03 [22]: 2.45 µg/mL | Neutralization IC50, H7-BC04 [23]: 0.96 µg/mL | Neutralizing activity IC50, swine-origin A/Minnesota/11/2010 [24]: 1.6 µg/mL and 1.4 µg/mL

B2: Antibody 11 (antibody, V domains shown)
VH: QVQLQQSGPGLVKPSQTLSLTCAISGDSVSSYNAVWNWIRQSPSRGLEWLGRTYYRSGWYNDYAESVKSRITINPDTSKNQFSLQLNSVTPEDTAVYYCARSGHITVFGVNVDAFDMWGQGTMVTVSS
VL: DIQMTQSPSSLSASVGDRVTITCRTSQSLSSYTHWYQQKPGKAPKLLIYAASSRLSGVPSRFSGSGSGTDFTLTISSLQPEDFATYYCQQSRTFGQGTKVEIK
Neutralization IC50, H1-FM47 [1]: 0.43 µg/mL | Neutralization IC50, H1-NJ76 [2]: 0.13 µg/mL | Neutralization IC50, H1-Kaw86 [3]: 0.53 µg/mL | Neutralization IC50, H1-TX91 [4]: 0.11 µg/mL | Neutralization IC50, H1-BJ95 [5]: 1.01 µg/mL | Neutralization IC50, H1-Ncal99 [6]: 0.66 µg/mL | Neutralization IC50, H1-BS10 [7]: 1.15 µg/mL | Neutralization IC50, H2-JP57 [8]: 0.31 µg/mL | Neutralization IC50, H2-MO06 [9]: 0.6 µg/mL | Neutralization IC50, H5-VM04 [10]: 0.57 µg/mL | Neutralization IC50, H5-HK03 [11]: 0.21 µg/mL | Neutralization IC50, H6-AB85 [12]: 0.24 µg/mL | Neutralization IC50, H6-HK97 [13]: 0.4 µg/mL | Neutralization IC50, H9-HK97 [14]: 0.36 µg/mL | Neutralization IC50, H3-HK68 [15]: 0.46 µg/mL | Neutralization IC50, H3-Vic75 [16]: 0.46 µg/mL | Neutralization IC50, H3-Syd97 [17]: 1.53 µg/mL | Neutralization IC50, H3-Pa99 [18]: 2.18 µg/mL | Neutralization IC50, H3-WI05 [19]: 1.07 µg/mL | Neutralization IC50, H3-Perth09 [20]: 0.17 µg/mL | Neutralization IC50, H3-VC11 [21]: 0.85 µg/mL | Neutralization IC50, H7-NLD03 [22]: 0.94 µg/mL | Neutralization IC50, H7-BC04 [23]: 0.71 µg/mL | Neutralizing activity IC50, swine-origin A/Minnesota/11/2010 [24]: 1.6 µg/mL and 1.5 µg/mL

B3: Antibody 5 (antibody, V domains shown)
VH: QVQLQQSGPGLVKPSQTLSLTCAISGDRVSSNSAVWNWIRQSPSRGLEWLGRTYYRSKWYYDYAESVKSRIVIDPDTSKNQVSLQLNSVTPEDSAIYYCARGGHITVFGLNIDAYDIWGQGAMVTVSS
VL: DIQMTQSPSSLSASVGDRVTISCRAQSLSSYLHWYQQKPGQPPKLLIYAATTLQSGVPSRFSGSGSGTDFTLTISTFQAEDVATYYCQQSRTFGQGTKVEIK
Neutralization IC50, H1-FM47 [25]: 0.86 µg/mL | Neutralization IC50, H1-NJ76 [26]: 1.64 µg/mL | Neutralization IC50, H1-Kaw86 [27]: 1.01 µg/mL | Neutralization IC50, H1-TX91 [28]: 0.76 µg/mL | Neutralization IC50, H1-BJ95 [29]: 5.06 µg/mL | Neutralization IC50, H1-Ncal99 [30]: 0.85 µg/mL | Neutralization IC50, H2-MO06 [31]: 2.38 µg/mL | Neutralization IC50, H5-VM04 [32]: 2.6 µg/mL | Neutralization IC50, H5-HK03 [33]: 1.18 µg/mL | Neutralization IC50, H6-HK97 [34]: 2.27 µg/mL | Neutralization IC50, H9-HK97 [35]: 2.43 µg/mL | Neutralization IC50, H3-HK68 [36]: 0.39 µg/mL | Neutralization IC50, H3-Vic75 [37]: 0.57 µg/mL | Neutralization IC50, H3-Syd97 [38]: 3.03 µg/mL | Neutralization IC50, H3-Pa99 [39]: 16.7 µg/mL | Neutralization IC50, H3-Wy03 [40]: 0.77 µg/mL | Neutralization IC50, H3-WI05 [41]: 2.83 µg/mL | Neutralization IC50, H3-Perth09 [42]: 2.22 µg/mL | Neutralization IC50, H7-NLD03 [43]: 4.14 µg/mL | Neutralization IC50, H7-BC04 [44]: 5.35 µg/mL
